{"source": "patent US20260098095A1", "about": "(Hoffmann-La Roche, published 2026)", "key": {"[1]": {"target": "T1, HLA-A2/MAGE-A4 peptide MHC (pMHC) complex on cells (human)", "assay": "cell-based or functional assay"}, "T9A": {"target": "T9A (human)", "assay": "cell-based or functional assay"}, "R6A": {"target": "R6A (human)", "assay": "cell-based or functional assay"}, "G5A": {"target": "G5A (human)", "assay": "cell-based or functional assay"}, "Y3A": {"target": "Y3A (human)", "assay": "cell-based or functional assay"}, "V2A": {"target": "V2A (human)", "assay": "cell-based or functional assay"}, "V10A": {"target": "V10A (human)", "assay": "cell-based or functional assay"}, "[2]": {"target": "T1, HLA-A2/MAGE-A4 peptide MHC (pMHC) …", "assay": "cell-based or functional assay", "remark": "listed apart in the source"}, "H8A": {"target": "H8A (human)", "assay": "cell-based or functional assay"}, "E7A": {"target": "E7A (human)", "assay": "cell-based or functional assay"}, "G1A": {"target": "G1A (human)", "assay": "cell-based or functional assay"}, "D4A": {"target": "D4A (human)", "assay": "cell-based or functional assay"}, "[3]": {"target": "T1, HLA-A2/MAGE-A4 peptide MHC (pMHC) …", "assay": "cell-based or functional assay", "remark": "listed apart in the source"}, "[4]": {"target": "T1, HLA-A2/MAGE-A4 peptide MHC (pMHC) …", "assay": "cell-based or functional assay", "remark": "listed apart in the source"}, "GAPDHS": {"target": "GAPDHS (human)", "assay": "cell-based or functional assay"}, "EDC3": {"target": "EDC3 (human)", "assay": "cell-based or functional assay"}, "KDM1A": {"target": "KDM1A (human)", "assay": "cell-based or functional assay"}, "UBE2V2": {"target": "UBE2V2 (human)", "assay": "cell-based or functional assay"}, "ARF3": {"target": "ARF3 (human)", "assay": "cell-based or functional assay"}, "FBXO34": {"target": "FBXO34 (human)", "assay": "cell-based or functional assay"}, "KEAP1": {"target": "KEAP1 (human)", "assay": "cell-based or functional assay"}, "DYNC1H1": {"target": "DYNC1H1 (human)", "assay": "cell-based or functional assay"}, "URB1": {"target": "URB1 (human)", "assay": "cell-based or functional assay"}, "MAGEB2": {"target": "MAGEB2 (human)", "assay": "cell-based or functional assay"}, "CRMP1": {"target": "CRMP1 (human)", "assay": "cell-based or functional assay"}, "gutQ": {"target": "gutQ (human)", "assay": "cell-based or functional assay"}, "CCS": {"target": "CCS (human)", "assay": "cell-based or functional assay"}, "PIGG": {"target": "PIGG (human)", "assay": "cell-based or functional assay"}, "BNRF1": {"target": "BNRF1 (human)", "assay": "cell-based or functional assay"}, "UNC80": {"target": "UNC80 (human)", "assay": "cell-based or functional assay"}, "ARF1": {"target": "ARF1 (human)", "assay": "cell-based or functional assay"}, "MTOR": {"target": "MTOR (human)", "assay": "cell-based or functional assay"}, "PKP1": {"target": "PKP1 (human)", "assay": "cell-based or functional assay"}, "[5]": {"target": "HLA-A2 with peptide MAGA10 on T2 cells (human)", "assay": "cell-based or functional assay"}, "VPS13D": {"target": "VPS13D (human)", "assay": "cell-based or functional assay"}, "DPYSL4": {"target": "DPYSL4 (human)", "assay": "cell-based or functional assay"}, "DPYSL3": {"target": "DPYSL3 (human)", "assay": "cell-based or functional assay"}, "[6]": {"target": "HLA-A2 with peptide MAGB6 on T2 cells (human)", "assay": "cell-based or functional assay"}, "pfkA": {"target": "pfkA (human)", "assay": "cell-based or functional assay"}, "SLC45A1": {"target": "SLC45A1 (human)", "assay": "cell-based or functional assay"}, "[7]": {"target": "T2, HLA-A2/MAGE-A4p230-239 complex (human)", "T2 construct": "also called HLA-A2/MAGEp230-239", "assay": "SPR Biacore T200, antibody captured by anti-human Fc, pMHC complex as analyte, 25 C, 1:1 Langmuir fit", "experimental": "The dissociation phase was monitored for 240 s and triggered by switching from the sample solution to HBS-EP+. The chip surface was regenerated after every cycle using an injection of 3M MgCl₂ at 10 μl/min for 30 sec. Bulk refractive index differences were corrected for by subtracting the response obtained on the reference flow cell which contains the anti-human Fc antibody, but without HLA-A2/MAGE-A4 antibody captured on it. The affinity constants were derived from the kinetic rate constants by fitting to a 1:1 Langmuir binding using the BIAeval software (GE Healthcare). The measurement was performed in triplicate with independent dilution series."}, "[8]": {"target": "T1, HLA-A2/MAGE-A4 peptide MHC (pMHC) …", "assay": "cell-based or functional assay", "remark": "listed apart in the source"}, "[9]": {"target": "T1, HLA-A2/MAGE-A4 peptide MHC (pMHC) …", "assay": "cell-based or functional assay", "remark": "listed apart in the source"}}, "data": [{"binder": "Molecule B (bispecific antibody, V domains shown) VH 1: YPQLVESGGGLVKPGGSLRLSCAARYPFTRLDMSWVRQAPGKGLEWVGSISPKGGSTYYNDNVLGRFTISRDNSKNTLYLQMNSLRAEDTAVYYCARDWGFFDNWGQGTLVTVSS VL 1: AIQMTQSPSSLSASVGDRVTITCRASQSISNYLAWYQQKPGKAPKLLIYNASHPEYDVPSRFSGSGSGTDFTLTISSLQPEDFATYYCQQYSSHPYTFGQGTKLEIK VH 2: not shown VL 2: QAVVTQEPSLTVSPGGTVTLTCGSSTGAVTTSNYANWVQEKPGQAFRGLIGGTNKRAPGTPARFSGSLLGGKAALTLSGAQPEDEAEYYCALWYSNLWVFGGGTKLTVL", "values": [{"measurement": "EC50 [pM] 24 h, T-cell mediated lysis of MAGE-A4 peptide pulsed T2 cells", "setting": "[1]", "value": 72.8, "unit": "pM"}, {"measurement": "EC50, Jurkat-NFAT activation", "setting": "T9A", "value": 0.426, "unit": "nM"}, {"measurement": "EC50, Jurkat-NFAT activation", "setting": "R6A", "value": 45.5, "unit": "nM"}, {"measurement": "EC50, Jurkat-NFAT activation", "setting": "G5A", "value": 0.181, "unit": "nM"}, {"measurement": "EC50, Jurkat-NFAT activation", "setting": "Y3A", "value": 27.9, "unit": "nM"}, {"measurement": "EC50, Jurkat-NFAT activation", "setting": "V2A", "value": 0.258, "unit": "nM"}, {"measurement": "EC50, Jurkat-NFAT activation", "setting": "V10A", "value": 1.01, "unit": "nM"}, {"measurement": "EC50, Jurkat-NFAT activation", "setting": "[2]", "value": 0.189, "unit": "nM"}, {"measurement": "EC50, Jurkat-NFAT activation", "setting": "H8A", "value": 0.717, "unit": "nM"}, {"measurement": "EC50, Jurkat-NFAT activation", "setting": "E7A", "value": 3.48, "unit": "nM"}, {"measurement": "EC50, Jurkat-NFAT activation", "setting": "G1A", "value": 141, "unit": "nM"}, {"measurement": "EC50, Jurkat-NFAT activation", "setting": "D4A", "value": 191, "unit": "nM"}, {"measurement": "EC50 [pM], activation of Jurkat-NFAT reporter cells (luminescence, 6 h) with MAGE-A4 peptide pulsed T2 cells", "setting": "[3]", "value": "~8310", "unit": "pM"}, {"measurement": "EC50 [pM], T-cell mediated lysis of IM-9 cells, 24 h", "setting": "[4]", "value": 1080, "unit": "pM"}, {"measurement": "EC50 [pM], T-cell mediated lysis of NCI-H1755 cells, 24 h", "setting": "[4]", "value": 168, "unit": "pM"}, {"measurement": "% of MAGE-A4 signal, Jurkat-NFAT", "setting": "GAPDHS", "value": 1.37, "unit": "%"}, {"measurement": "% of MAGE-A4 signal, Jurkat-NFAT", "setting": "EDC3", "value": 0.63, "unit": "%"}, {"measurement": "% of MAGE-A4 signal, Jurkat-NFAT", "setting": "KDM1A", "value": 1.04, "unit": "%"}, {"measurement": "% of MAGE-A4 signal, Jurkat-NFAT", "setting": "UBE2V2", "value": 1.37, "unit": "%"}, {"measurement": "% of MAGE-A4 signal, Jurkat-NFAT", "setting": "ARF3", "value": 1.59, "unit": "%"}, {"measurement": "% of MAGE-A4 signal, Jurkat-NFAT", "setting": "FBXO34", "value": 0.91, "unit": "%"}, {"measurement": "% of MAGE-A4 signal, Jurkat-NFAT", "setting": "KEAP1", "value": 1.07, "unit": "%"}, {"measurement": "% of MAGE-A4 signal, Jurkat-NFAT", "setting": "DYNC1H1", "value": 0.85, "unit": "%"}, {"measurement": "% of MAGE-A4 signal, Jurkat-NFAT; grey (>2%)", "setting": "URB1", "value": 67.9, "unit": "%"}, {"measurement": "% of MAGE-A4 signal, Jurkat-NFAT", "setting": "MAGEB2", "value": 1.58, "unit": "%"}, {"measurement": "% of MAGE-A4 signal, Jurkat-NFAT; grey (>2%)", "setting": "CRMP1", "value": 67.5, "unit": "%"}, {"measurement": "% of MAGE-A4 signal, Jurkat-NFAT", "setting": "gutQ", "value": 1.11, "unit": "%"}, {"measurement": "% of MAGE-A4 signal, Jurkat-NFAT; grey (>2%)", "setting": "CCS", "value": 10.8, "unit": "%"}, {"measurement": "% of MAGE-A4 signal, Jurkat-NFAT", "setting": "PIGG", "value": 1.46, "unit": "%"}, {"measurement": "% of MAGE-A4 signal, Jurkat-NFAT", "setting": "BNRF1", "value": 1.05, "unit": "%"}, {"measurement": "% of MAGE-A4 signal, Jurkat-NFAT", "setting": "UNC80", "value": 0.98, "unit": "%"}, {"measurement": "% of MAGE-A4 signal, Jurkat-NFAT", "setting": "ARF1", "value": 1.14, "unit": "%"}, {"measurement": "% of MAGE-A4 signal, Jurkat-NFAT", "setting": "MTOR", "value": 0.59, "unit": "%"}, {"measurement": "% of MAGE-A4 signal, Jurkat-NFAT", "setting": "PKP1", "value": 0.94, "unit": "%"}, {"measurement": "% of MAGE-A4 signal, Jurkat-NFAT; grey (>2%)", "setting": "[5]", "value": 10.6, "unit": "%"}, {"measurement": "% of MAGE-A4 signal, Jurkat-NFAT", "setting": "VPS13D", "value": 1.8, "unit": "%"}, {"measurement": "% of MAGE-A4 signal, Jurkat-NFAT; grey (>2%)", "setting": "DPYSL4", "value": 53.1, "unit": "%"}, {"measurement": "% of MAGE-A4 signal, Jurkat-NFAT; grey (>2%)", "setting": "DPYSL3", "value": 112, "unit": "%"}, {"measurement": "% of MAGE-A4 signal, Jurkat-NFAT; grey (>2%)", "setting": "[6]", "value": 57.9, "unit": "%"}, {"measurement": "% of MAGE-A4 signal, Jurkat-NFAT", "setting": "pfkA", "value": 1.1, "unit": "%"}, {"measurement": "% of MAGE-A4 signal, Jurkat-NFAT", "setting": "SLC45A1", "value": 1.22, "unit": "%"}]}, {"binder": "Molecule R (bispecific antibody, human IgG1, kappa, L234A L235A) heavy 1: not shown heavy 2: AQLVESGGGLVQPGGSLRLSCAASAYFSFKAMSWVRQAPGKGLEWVGSISPSGGSTYYNDNVLGRFTISRDNSKNTLYLQMNSLRAEDTAVYYCAKDVGFFDEWGQGTLVTVSSASTKGPSVFPLAPSSKSTSGGTAALGCLVEDYFPEPVTVSWNSGALTSGVHTFPAVLQSSGLYSLSSVVTVPSSSLGTQTYICNVNHKPSNTKVDEKVEPKSCDKTHTCPPCPAPEAAGGPSVFLFPPKPKDTLMISRTPEVTCVVVDVSHEDPEVKFNWYVDGVEVHNAKTKPREEQYNSTYRVVSVLTVLHQDWLNGKEYKCKVSNKALGAPIEKTISKAKGQPREPQVCTLPPSRDELTKNQVSLSCAVKGFYPSDIAVEWESNGQPENNYKTTPPVLDSDGSFFLVSKLTVDKSRWQQGNVFSCSVMHEALHNHYTQKSLSLSP light 1: DIQMTQSPSSLSASVGDRVTITCRASQSISSYLAWYQQKPGKAPKLLIYDASIRDIGVPSRFSGSGSGTDFTLTISSLQPEDFATYYCQQYSSYPYTFGQGTKLEIKRTVAAPSVFIFPPSDRKLKSGTASVVCLLNNFYPREAKVQWKVDNALQSGNSQESVTEQDSKDSTYSLSSTLTLSKADYEKHKVYACEVTHQGLSSPVTKSFNRGEC light 2: EVQLVESGGGLVQPGGSLRLSCAASGYSFTGYTMNWVRQAPGKGLEWVALINPYKGVSTYNQKFKDRFTISVDKSKNTAYLQMNSLRAEDTAVYYCARSGYYGDSDWYFDVWGQGTLVTVSSASVAAPSVFIFPPSDEQLKSGTASVVCLLNNFYPREAKVQWKVDNALQSGNSQESVTEQDSKDSTYSLSSTLTLSKADYEKHKVYACEVTHQGLSSPVTKSFNRGEC", "values": [{"measurement": "Kd", "setting": "[7]", "value": 13.1, "unit": "nM"}, {"measurement": "koff", "setting": "[7]", "value": 0.0436, "unit": "s⁻¹"}, {"measurement": "kon", "setting": "[7]", "value": "3.33e+06", "unit": "M⁻¹ s⁻¹"}, {"measurement": "EC50 (nM), T-cell mediated lysis of A375 cells, 48 h", "setting": "[8]", "value": 1.47, "unit": "nM"}, {"measurement": "EC50 (nM), T-cell mediated lysis of NCI-H2023 cells, 48 h", "setting": "[8]", "value": 1.06, "unit": "nM"}, {"measurement": "EC50 (nM), T-cell mediated lysis of UMUC-3 cells, 48 h", "setting": "[8]", "value": 0.57, "unit": "nM"}, {"measurement": "EC50 [pM], T-cell mediated lysis of A375 HLA-A2 overexpressing cells, 24 h", "setting": "[9]", "value": 0.08, "unit": "pM"}, {"measurement": "EC50 [pM], T-cell mediated lysis of A375 cells, 24 h", "setting": "[9]", "value": 0.6, "unit": "pM"}]}]}
